What was measured:
[1] = target: PD-1 (Homo sapiens (Human)) (UniProt Q15116); assay: flow cytometry, cells expressing PD-1
[2] = target: CD80 (Homo sapiens (Human)) (UniProt P33681); assay: flow cytometry, cells expressing CD80
CD226 (human) = target: T1, CD226 (human) (UniProt Q15762); assay: flow cytometry, cells expressing target, 25 nM
T1 sequence: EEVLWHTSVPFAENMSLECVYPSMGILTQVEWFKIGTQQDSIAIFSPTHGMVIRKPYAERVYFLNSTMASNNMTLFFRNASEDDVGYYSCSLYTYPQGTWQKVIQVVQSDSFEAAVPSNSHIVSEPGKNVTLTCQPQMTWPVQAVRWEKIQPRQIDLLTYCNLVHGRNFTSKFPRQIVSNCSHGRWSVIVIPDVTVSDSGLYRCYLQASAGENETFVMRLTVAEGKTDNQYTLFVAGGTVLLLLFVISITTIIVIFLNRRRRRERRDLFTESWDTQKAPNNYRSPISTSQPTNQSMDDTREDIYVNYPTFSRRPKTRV

CD112R (human) = CD112R (human) (UniProt Q6DKI7); assay: flow cytometry, cells expressing target, 25 nM
TIGIT (human) = target: T2, TIGIT (human) (UniProt Q495A1); assay: flow cytometry, cells expressing target, 25 nM
T2 sequence: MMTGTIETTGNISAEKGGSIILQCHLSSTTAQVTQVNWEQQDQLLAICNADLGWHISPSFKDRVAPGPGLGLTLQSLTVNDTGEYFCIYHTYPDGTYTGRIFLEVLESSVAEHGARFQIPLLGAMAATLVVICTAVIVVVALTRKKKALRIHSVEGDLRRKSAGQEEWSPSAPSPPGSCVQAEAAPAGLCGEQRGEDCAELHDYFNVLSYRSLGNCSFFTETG

CD96 = target: T3, CD96 (UniProt P40200); assay: flow cytometry, cells expressing target, 25 nM
T3 sequence (looked up): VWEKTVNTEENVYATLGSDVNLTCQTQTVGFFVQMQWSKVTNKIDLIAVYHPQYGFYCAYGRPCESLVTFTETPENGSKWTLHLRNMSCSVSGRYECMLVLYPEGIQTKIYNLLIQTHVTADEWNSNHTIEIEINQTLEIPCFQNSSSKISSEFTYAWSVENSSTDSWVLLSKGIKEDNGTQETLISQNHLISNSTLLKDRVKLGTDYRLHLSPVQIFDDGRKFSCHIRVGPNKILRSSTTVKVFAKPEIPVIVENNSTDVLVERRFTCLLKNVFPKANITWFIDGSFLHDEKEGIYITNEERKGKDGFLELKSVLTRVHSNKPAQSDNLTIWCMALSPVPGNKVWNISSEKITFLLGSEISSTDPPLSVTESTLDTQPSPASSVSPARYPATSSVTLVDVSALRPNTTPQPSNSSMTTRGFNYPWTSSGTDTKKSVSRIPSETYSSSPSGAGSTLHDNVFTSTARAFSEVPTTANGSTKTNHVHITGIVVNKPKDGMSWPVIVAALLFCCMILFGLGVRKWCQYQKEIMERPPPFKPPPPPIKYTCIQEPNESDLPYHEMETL

PD-L1 (human) = PD-L1 (human) (UniProt Q9NZQ7); assay: flow cytometry on HEK293 cells transfected with PD-L1
CTLA4 (human) = CTLA4 (human) (UniProt P16410); assay: flow cytometry on HEK293 cells transfected with CTLA4
[3] = target: human CD28, full-length, expressed on transfected Expi293 cells (human) (UniProt P10747); assay: flow cytometry on CD28-expressing Expi293 cells
[4] = target: CD112R, expressed on transfected cells (human) (UniProt Q6DKI7); assay: flow cytometry on transfected cells
[5] = target: T4, human CD226, full length, expressed on transfected cells (human) (UniProt Q15762); assay: flow cytometry on transfected cells
T4 sequence: T1 sequence

[6] = target: T5, human TIGIT, full length, expressed on transfected cells (human) (UniProt Q495A1); assay: flow cytometry on transfected cells
T5 sequence: T2 sequence

[7] = target: CD96, expressed on transfected cells (UniProt P40200); assay: flow cytometry on transfected cells

Sequence of CD112R (human) (Q6DKI7 whole entry): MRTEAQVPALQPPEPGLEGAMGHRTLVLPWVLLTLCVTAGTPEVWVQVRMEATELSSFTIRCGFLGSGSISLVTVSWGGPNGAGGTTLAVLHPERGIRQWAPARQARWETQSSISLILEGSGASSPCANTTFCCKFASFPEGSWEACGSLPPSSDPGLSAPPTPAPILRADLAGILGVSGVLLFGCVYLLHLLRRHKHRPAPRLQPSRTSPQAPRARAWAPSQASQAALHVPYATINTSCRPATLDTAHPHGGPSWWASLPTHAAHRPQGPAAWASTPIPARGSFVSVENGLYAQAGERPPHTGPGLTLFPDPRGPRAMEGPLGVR
Sequence of CD112R, expressed on transfected cells (human) (Q6DKI7 whole entry): as above
Sequence of PD-1 (Homo sapiens (Human)) (Q15116 21-288 limits assumed): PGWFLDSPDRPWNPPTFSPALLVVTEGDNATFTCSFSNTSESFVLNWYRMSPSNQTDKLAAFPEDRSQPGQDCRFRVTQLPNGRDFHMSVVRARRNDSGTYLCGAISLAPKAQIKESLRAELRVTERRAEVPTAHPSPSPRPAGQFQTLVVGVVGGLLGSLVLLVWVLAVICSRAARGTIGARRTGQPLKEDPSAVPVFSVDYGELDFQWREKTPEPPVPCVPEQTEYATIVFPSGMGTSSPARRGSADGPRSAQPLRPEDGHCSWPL
Sequence of PD-L1 (human) (Q9NZQ7 19-290 limits assumed): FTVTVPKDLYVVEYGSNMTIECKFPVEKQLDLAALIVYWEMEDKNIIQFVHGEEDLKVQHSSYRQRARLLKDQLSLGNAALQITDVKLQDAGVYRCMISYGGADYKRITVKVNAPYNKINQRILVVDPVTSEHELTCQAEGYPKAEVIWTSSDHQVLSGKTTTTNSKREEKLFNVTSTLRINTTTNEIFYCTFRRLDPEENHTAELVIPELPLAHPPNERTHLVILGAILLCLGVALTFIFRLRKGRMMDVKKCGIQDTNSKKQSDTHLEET
Sequence of CTLA4 (human) (P16410 36-223 limits assumed): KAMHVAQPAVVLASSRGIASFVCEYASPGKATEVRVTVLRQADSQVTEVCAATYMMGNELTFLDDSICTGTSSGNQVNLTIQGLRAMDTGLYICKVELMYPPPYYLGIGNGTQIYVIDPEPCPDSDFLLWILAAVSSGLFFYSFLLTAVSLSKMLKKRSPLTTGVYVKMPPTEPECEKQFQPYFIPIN
Sequence of CD80 (Homo sapiens (Human)) (P33681 35-288 limits assumed): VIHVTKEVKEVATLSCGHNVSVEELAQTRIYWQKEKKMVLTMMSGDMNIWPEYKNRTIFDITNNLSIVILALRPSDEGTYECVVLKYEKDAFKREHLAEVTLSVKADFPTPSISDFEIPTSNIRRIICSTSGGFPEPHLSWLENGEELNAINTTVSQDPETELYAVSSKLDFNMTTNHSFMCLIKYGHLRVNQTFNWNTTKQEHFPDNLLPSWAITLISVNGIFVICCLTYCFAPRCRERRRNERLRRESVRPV

Substance | MFI at 25 nM (CD226 (human)) [MFI] | MFI at 25 nM (CD112R (human)) [MFI] | MFI at 25 nM (TIGIT (human)) [MFI] | MFI at 25 nM (CD96) [MFI] | also measured
variant PD-L1 ECD-Fc M18I, I36T, E53G, M97L, K144E, E199G, V207A (from UniProt Q9NZQ7 19-238) (Fc fusion) | – | – | – | – | MFI at 20 nM [1]: 104; MFI at 20 nM [2]: 47400
CD155 variant IgV-Fc P18T, T39S, S52P, S54R, L79P, F91S, T107M (from UniProt P15151 24-139) (Fc fusion) | 744 | 1040 | 45900 | 1220 | –
CD80 IgV-Fc E35D/M47I (from UniProt P33681 35-141) (Fc fusion) | – | – | – | – | MFI at 22.2 nM (PD-L1 (human)): 150000 MFI; MFI at 66.6 nM (CTLA4 (human)): 354000 MFI
variant PD-L1 ECD-Fc M18V, M97L, F193S, R195G, E200K, H202Q (from UniProt Q9NZQ7 19-238) (Fc fusion) | – | – | – | – | MFI at 20 nM [1]: 69
CD155 variant IgV-Fc V9L, P18L, M55V, S69L, L79P, A81E, F91S, T107M (from UniProt P15151 24-139) (Fc fusion) | – | 920 | 58700 | 67400 | –
CD155 variant IgV-Fc V9A, P18S, M36T, S65G, L79P, F91S, L104T, G111R, S112I (from UniProt P15151 24-139) (Fc fusion) | 989 | 886 | 92500 | – | –
variant PD-L1 ECD-Fc G15A, I36T, V129D, R195G (from UniProt Q9NZQ7 19-238) (Fc fusion) | – | – | – | – | MFI at 20 nM [1]: 125
CD155 variant IgV-Fc D8G, V9I, V11A, P18T, T26M, S52P, L79P, F91S, G92A, T107L, V115A (from UniProt P15151 24-139) (Fc fusion) | – | 817 | 52500 | 97800 | –
variant PD-L1 ECD-Fc G15A, I36T, M97L, K111E, H202Q (from UniProt Q9NZQ7 19-238) (Fc fusion) | – | – | – | – | MFI at 20 nM [1]: 112
CD155 variant IgV-Fc P18T, G19D, M36T, S54N, L79P, L83Q, F91S, T107M, F108Y (from UniProt P15151 24-139) (Fc fusion) | 748 | 1280 | 905 | 726 | –
CD155 variant IgV-Fc V10F, T15S, P18L, R48Q, L79P, F91S, T107M, V115M (from UniProt P15151 24-139) (Fc fusion) | 792 | 901 | 1170 | 998 | –
CD80 IgV-Fc M47L/V68A (from UniProt P33681 35-141) (Fc fusion) | – | – | – | – | MFI at 66.6 nM (CTLA4 (human)): 74200 MFI
CD155 variant IgV-Fc P18T, M55L, T61R, L79P, F91S, V106I, T107M (from UniProt P15151 24-139) (Fc fusion) | 1910 | 827 | 133000 | 57900 | –
ICOSL variant N52S/S130G/Y152C ECD-Fc fusion (from UniProt O75144 19-256) | – | – | – | – | MFI [3]: 24 MFI
CD80 IgV-Fc V22L/M38V/M47T/A71D/L85M (from UniProt P33681 35-141) (Fc fusion) | – | – | – | – | MFI at 22.2 nM (PD-L1 (human)): 6140 MFI; MFI at 66.6 nM (CTLA4 (human)): 175000 MFI
CD80 IgV-Fc L70P/F92S (from UniProt P33681 35-141) (Fc fusion) | – | – | – | – | MFI at 22.2 nM (PD-L1 (human)): 6170 MFI; MFI at 66.6 nM (CTLA4 (human)): 4040 MFI
CD80 IgV-Fc M43I/C82R (from UniProt P33681 35-141) (Fc fusion) | – | – | – | – | MFI at 22.2 nM (PD-L1 (human)): 7400 MFI; MFI at 66.6 nM (CTLA4 (human)): 3640 MFI
CD80 variant M38V/T41D/M43I/W50G/D76G/V83A/K89E/T120S/T130A ECD-Fc fusion (from UniProt P33681 35-242) | – | – | – | – | MFI [3]: 5 MFI
CD155 variant T45Q, S52R, G111R IgV-Fc (from UniProt P15151 24-139) (Fc fusion) | – | – | – | – | MFI at 100 nM [4]: 1790; MFI at 100 nM [5]: 2080; MFI at 100 nM [6]: 4090; MFI at 100 nM [7]: 2340
CD155 variant IgV-Fc P18F, E51V, S54G, Q60R, L79Q, E82G, S87T, M90I, F91S, G92R, T107M (from UniProt P15151 24-139) (Fc fusion) | 15700 | 1010 | 46100 | 61800 | –
CD155 variant S52M, L104Q IgV-Fc (from UniProt P15151 24-139) (Fc fusion) | – | – | – | – | MFI at 100 nM [4]: 1710; MFI at 100 nM [5]: 2250; MFI at 100 nM [6]: 2670; MFI at 100 nM [7]: 1630
CD155 variant S42N, L104Q, G111R IgV-Fc (from UniProt P15151 24-139) (Fc fusion) | – | – | – | – | MFI at 100 nM [4]: 1850; MFI at 100 nM [5]: 2310; MFI at 100 nM [6]: 2430; MFI at 100 nM [7]: 1960
CD155 variant S52E IgV-Fc (from UniProt P15151 24-139) (Fc fusion) | – | – | – | – | MFI at 100 nM [4]: 1900; MFI at 100 nM [5]: 2600; MFI at 100 nM [6]: 2660; MFI at 100 nM [7]: 1800
CD80 IgV-Fc N55D/K86M (from UniProt P33681 35-141) (Fc fusion) | – | – | – | – | MFI at 22.2 nM (PD-L1 (human)): 5090 MFI; MFI at 66.6 nM (CTLA4 (human)): 3540 MFI
CD155 variant Q62Y IgV-Fc (from UniProt P15151 24-139) (Fc fusion) | – | – | – | – | MFI at 100 nM [4]: 1920; MFI at 100 nM [5]: 2620; MFI at 100 nM [6]: 2530; MFI at 100 nM [7]: 1830
CD155 variant T45Q, S52L, V57L, L104E IgV-Fc (from UniProt P15151 24-139) (Fc fusion) | – | – | – | – | MFI at 100 nM [4]: 1500; MFI at 100 nM [5]: 5940; MFI at 100 nM [6]: 2860; MFI at 100 nM [7]: 1530

More lines, main results first:

MFI at 25 nM (CD226 (human)) [MFI] | MFI at 25 nM (CD112R (human)) [MFI] | MFI at 25 nM (TIGIT (human)) [MFI] | MFI at 25 nM (CD96) [MFI] | Substance | also measured
793 | 854 | 16200 | 1180 | CD155 variant IgV-Fc P18S, K70R, L79P, F91S, G111R (from UniProt P15151 24-139) (Fc fusion) | –
853 | 918 | 108000 | – | CD155 variant IgV-Fc P18F, H40Q, T61K, Q62K, L79P, F91S, L104M, T107V (from UniProt P15151 24-139) (Fc fusion) | –
54300 | 752 | 55200 | 102000 | CD155 variant IgV-Fc V9I, P18F, A47E, G50S, E68G, L79P, F91S, T107M (from UniProt P15151 24-139) (Fc fusion) | –
– | 863 | 4250 | 3640 | CD155 variant IgV-Fc V10G, P18T, L72Q, L79P, F91S, T107M (from UniProt P15151 24-139) (Fc fusion) | –
640 | 803 | 918 | 717 | CD155 variant IgV-Fc P18T, W46C, H49R, S65A, S67V, A76T, L79P, S87T, L104M (from UniProt P15151 24-139) (Fc fusion) | –
676 | 915 | 800 | 759 | CD155 variant IgV-Fc P18S, H59N, V75A, L79P, A81T, F91S, L104M, T107M (from UniProt P15151 24-139) (Fc fusion) | –
913 | 830 | 45200 | 33900 | CD155 variant IgV-Fc V11A, P18F, D23A, L79P, G80D, V95A, T107M (from UniProt P15151 24-139) (Fc fusion) | –
2320 | 893 | 3000 | 925 | CD155 variant IgV-Fc V9L, V11M, P18S, N35S, S54G, Q62K, L79P, L104M, T107M, V115M (from UniProt P15151 24-139) (Fc fusion) | –

— patent US20200040059A1
